Results reported in patent US20250130242A1.
Non-standard residues stand in square brackets, D forms with d. No end group written: not given here. pGlu = O=C1CC[C@@H](C(=O)O)N1

Legend:
[1] = molecular target: S24201 antibody; assay: competitive ELISA; coated C1A2-01-BSA (printed C1A1-02-BSA), S24201 125 ng/mL, competitive peptide 5000 ng/ml
[2] = molecular target: S24201 antibody; assay: competitive ELISA; coated C1A2-01-BSA (printed C1A1-02-BSA), S24201 125 ng/mL, competitive peptide 8 ng/ml
[3] = molecular target: S24201 antibody; assay: competitive ELISA; coated C1A2-01-BSA (printed C1A1-02-BSA), S24201 125 ng/mL, competitive peptide 0 ng/ml (baseline without competitor)
[4] = molecular target: S24201 antibody; assay: competitive ELISA; coated C1A2-01-BSA (printed C1A1-02-BSA), S24201 125 ng/mL, competitive peptide 1.6 ng/ml
[5] = molecular target: S24201 antibody; assay: competitive ELISA; coated C1A2-01-BSA (printed C1A1-02-BSA), S24201 125 ng/mL, competitive peptide 1000 ng/ml
[6] = molecular target: S24201 antibody; assay: competitive ELISA; coated C1A2-01-BSA (printed C1A1-02-BSA), S24201 125 ng/mL, competitive peptide 40 ng/ml
[7] = molecular target: S24201 antibody; assay: competitive ELISA; coated C1A2-01-BSA (printed C1A1-02-BSA), S24201 125 ng/mL, competitive peptide 0.32 ng/ml
[8] = molecular target: S24201 antibody; assay: competitive ELISA; coated C1A2-01-BSA (printed C1A1-02-BSA), S24201 125 ng/mL, competitive peptide 200 ng/ml

Absorbance at wavelength 492 nm (absorbance at 492 nm) [1]	Absorbance at wavelength 492 nm (absorbance at 492 nm) [2]	Absorbance at wavelength 492 nm (absorbance at 492 nm) [3]	Absorbance at wavelength 492 nm (absorbance at 492 nm) [4]	Absorbance at wavelength 492 nm (absorbance at 492 nm) [5]	Absorbance at wavelength 492 nm (absorbance at 492 nm) [6]	Absorbance at wavelength 492 nm (absorbance at 492 nm) [7]	Absorbance at wavelength 492 nm (absorbance at 492 nm) [8]	Binder
0.074	0.668	0.752	0.735	0.142	0.541	0.712	0.306	[pGlu]SLQEETVRK [peptide C1A2-02 (J…)]
0.313	0.681	0.702	0.7	0.521	0.693	0.706	0.652	QSLQEETVRK [peptide C1A2-03 (…)]
